Experimental data published in PMC5623693, “Rb‐independent E2F3 promotes cell proliferation and alters expression of genes involved in metabolism and inflammation” (FEBS Open Bio, 2017).
No end group written: not given here. *: point of attachment. 5‑TAMRA = CN(C)c1ccc2c(-c3ccc(C(=O)*)cc3C(=O)[O-])c3ccc(N(C)C)cc3[o+]c2c1

T1: GST-pRb (aa379-928) (UniProt P06400 379-928)
T1 construct: retinoblastoma protein pRb, residues 379-928
T1 sequence (looked up): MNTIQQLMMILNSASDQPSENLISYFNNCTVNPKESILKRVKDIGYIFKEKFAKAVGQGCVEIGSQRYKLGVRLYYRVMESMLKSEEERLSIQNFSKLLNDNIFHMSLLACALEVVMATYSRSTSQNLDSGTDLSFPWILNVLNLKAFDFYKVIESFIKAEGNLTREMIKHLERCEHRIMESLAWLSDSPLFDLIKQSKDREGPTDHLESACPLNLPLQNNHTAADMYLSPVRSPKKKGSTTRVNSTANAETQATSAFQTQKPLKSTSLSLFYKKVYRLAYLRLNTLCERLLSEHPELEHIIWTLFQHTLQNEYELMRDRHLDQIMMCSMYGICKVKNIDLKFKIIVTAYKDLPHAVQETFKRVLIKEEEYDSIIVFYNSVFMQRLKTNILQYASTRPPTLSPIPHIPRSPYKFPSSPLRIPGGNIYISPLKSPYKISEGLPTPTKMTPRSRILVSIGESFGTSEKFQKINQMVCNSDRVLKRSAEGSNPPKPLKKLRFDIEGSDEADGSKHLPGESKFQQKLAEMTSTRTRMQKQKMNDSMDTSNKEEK

B1: Tamra-labeled E2F1 WT peptide (peptide)
peptide: {5‑TAMRA}-EALDYHFGLEEGEGIRDLFDCDFG
notes: L415 is the ninth letter; also called WT E2F1 peptide; E2F1 C-terminal peptide; source: synthetic peptide (United BioSystems)
B2: Tamra-labeled E2F1-mutant peptide (L415Q) (peptide)
peptide: {5‑TAMRA}-EALDYHFGQEEGEGIRDLFDCDFG
notes: also called E2F1 L415Q peptide; LQ; source: synthetic peptide (Peptide 2.0)

Experiments:
Test in all cases: fluorescence polarisation; TAMRA-labeled peptide (100 nM stock, 1 uL in 10 uL final) with purified protein serially diluted 1:2; 20 mM HEPES, 100 mM KCl, 0.1% Tween-20, 5 mM DTT, pH 7.8; 20 min in the dark at room temperature; Kd by Michaelis-Menten equation, least-squares nonlinear regression
[1] = target: Tamra-labeled E2F1 WT peptide (human)
[2] = target: Tamra-labeled E2F1-mutant peptide (L415Q) (human)
GST-pRb (aa379-928) = target: T1, GST-pRb (aa379-928); conditions: both partners purified

Molecule | Kd [1] | Kd [2] | Kd (GST-pRb (aa379-928))
HIS-p107 (aa379-1104) (domain or fragment) | 7 µM | 200 µM | –
B1 | – | – | ~3 µM
B2 | – | – | 20 µM
